Measurements published in publication PMC11137118 (2024).

Columns and labels:
[1] = target: hIL-22-ScFv (human IL-22 fused to a pancreas/liver targeting single chain variable fragment, linker (G4S)1) (human, UniProt Q9GZX6); experiment: SPR
[2] = target: all variants (mouse) of IL-22-ScFv; experiment: SPR

Kd [1]: 3.45 nM | koff [1]: 0.000781 s⁻¹ | Kd [2]: 2.82 nM | koff [2]: 0.000872 s⁻¹
B1: IL-22RA1 receptor (receptor)
chain: HAPEDPSDLLQHVKFQSSNFENILTWDSGPEGTPDTVYSIEYKTYGERDWVAKKGCQRITRKSCNLTVETGNLTELYYARVTAVSAGGRSATKMTDRFSSLQHTTLKPPDVTCISKVRSIQMIVHPTPTPIRAGDGHRLTLEDIFHDLFYHLELQVNRTYQMHLGGKQREYEFFGLTPDTEFLGTIMICVPTWAKESAPYMCRVKTLPDRTWTYSFSGAFLFSMGFLVAVLCYLSYRYVTKPPAPPNSLNVQRVLTFQPLRFIQEHVLIPVFDLSGPSSLAQPVQYSQIRVSGPREPAGAPQRHSLSEITYLGQPDISILQPSNVPPPQILSPLSYAPNAAPEVGPPSYAPQVTPEAQFPFYAPQAISKVQPSSYAPQATPDSWPPSYGVCMEGSGKDSPTGTLSSPKHLRPKGQLQKEPPAGSCMLGGLSLQEVTSLAMEESQEAKSLHQPLGICTDRTSDPNVLHSGEEGTPQYLKGQLPLLSSVQIEGHPMSLPLQPPSRPCSPSDQGPSPWGLLESLVCPKDEAKSPAPETSDLEQPTELDSLFRGLALTVQWES
